The values that follow come from US20220332804A1 (CSL INNOVATION, published 2022).

The Kd is the equilibrium constant for the complex coming apart. A lower Kd goes with a tighter complex.

Assay in all cases: SPR, mAb captured, C2 mutant analyte;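 also: Anti-C2 mAbs captured on goat anti-human IgG Biacore CM5 chips, alanine or serine C2 surface mutants flowed over at 37 °C, double-referenced sensorgrams fitted to a 1:1 binding model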
A general note: SPR reads the build-up and loss of mass on a sensor chip optically.

One test deals with T1, human C2 N403A (human, UniProt P06681 21-752).
T1 sequence: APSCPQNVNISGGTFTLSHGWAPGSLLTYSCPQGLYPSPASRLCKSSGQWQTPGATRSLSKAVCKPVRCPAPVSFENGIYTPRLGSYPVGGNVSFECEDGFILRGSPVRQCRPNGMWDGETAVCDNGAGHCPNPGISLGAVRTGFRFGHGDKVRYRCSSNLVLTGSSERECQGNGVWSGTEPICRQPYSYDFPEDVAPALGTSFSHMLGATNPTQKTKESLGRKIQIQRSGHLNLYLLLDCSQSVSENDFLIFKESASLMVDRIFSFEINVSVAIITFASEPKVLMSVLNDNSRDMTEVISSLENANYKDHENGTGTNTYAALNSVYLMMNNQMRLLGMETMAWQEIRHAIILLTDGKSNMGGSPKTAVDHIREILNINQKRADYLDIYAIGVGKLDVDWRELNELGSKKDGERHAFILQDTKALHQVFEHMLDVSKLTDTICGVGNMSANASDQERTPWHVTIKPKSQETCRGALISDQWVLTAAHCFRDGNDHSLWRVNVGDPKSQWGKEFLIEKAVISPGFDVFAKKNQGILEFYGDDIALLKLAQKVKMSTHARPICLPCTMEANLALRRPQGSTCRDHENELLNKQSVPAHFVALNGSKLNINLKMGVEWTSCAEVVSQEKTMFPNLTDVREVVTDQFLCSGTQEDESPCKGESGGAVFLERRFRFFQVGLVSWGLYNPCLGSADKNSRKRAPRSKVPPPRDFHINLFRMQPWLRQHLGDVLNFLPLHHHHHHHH

For another test, the target named is T2, human C2 I272A (human, UniProt P06681 21-752).
T2 sequence: T1 sequence with I252A, A383N

A further test addresses T3, human C2 E324A (human, UniProt P06681 21-752).
T3 sequence: T1 sequence with E304A, A383N

The target of the next test is T4, human C2 D419A (human, UniProt P06681 21-752).
T4 sequence: T1 sequence with A383N, D399A

Where a chain is given by its changes, count along the chain named.

B1: RF16-214 (antibody, V domains shown)
VH: EVQLLESGGGLVQPGGSLRLSCAASGFTFSWYQMMWVRQAPGKGLEWVSRIYPSGGGTAYADSVKGRFTISRDNSKNTLYLQMNSLRAEDTAVYYCARDAGYGDNWGQGTLVTVSS
VL: QSALTQPPSVSVSPGQTASITCSGDKLGEKYASWYQQKAGQSPVMVIYQDRKRPSGIPERFSGSNSGNTATLTISGTQAMDEADYYCQAWDTRAVVFGGGTKLTVLG
For B1, the Kd with human C2 N403A is 29.6 nM; in the test with human C2 I272A it was 477 nM; with human C2 E324A, 27.8 nM; with human C2 D419A it was 70.7 nM.
